Experimental data: patent US20240100180A1

Legend:
[1] = target: CLDN18.2 of healthy mouse stomach (mouse) (UniProt P56857); test: flow cytometry, live cells of healthy mouse stomach, mouse 1, antibody 4 µg/ml
[2] = target: CLDN18.2 of healthy mouse stomach (mouse) (UniProt P56857); test: flow cytometry, live cells of healthy mouse stomach, mouse 2, antibody 4 µg/ml
[3] = target: CLDN18.2 of healthy mouse stomach (mouse) (UniProt P56857); test: flow cytometry, live cells of healthy mouse stomach, average of two mice

% of positive healthy stomach cells [1]: 0.4%
% of positive healthy stomach cells [2]: 0.3%
% of positive healthy stomach cells [3]: 0.35%
B1: cCl1-1 (antibody, V domains shown)
VH: QIQLVQSGPELKKPGESVKISCKASGYTFTDYAMHWVKQAPGKGLKWMGWINTYTGKPTYADDFKGRFVFSLEASASTANLQISNLKNEDTATYFCARAVFYGYTMDAWGQGTSVTVSS
VL: DIQMTQSPASLSASLGETISIACRASEDIYSNLAWYQQKSGKSPQLLIFSVKRLQDGVPSRFSGSGSGTQYSLKISGMQPEDEGDYFCLQGSNFPLTFGSGTKLEIK
